Data from PMC7910423.

Biological target: CMP-Pse5Ac7Ac synthetase PseF from Aeromonas caviae (Aeromonas caviae)
Experiment: SEC-MALS; 100 uL of AcPseF at 4 mg/mL on a Superdex S200 column in 20 mM Tris pH 7.8, 50 mM NaCl, 2 mM MgCl2; Wyatt HELEOS-II light scattering and rEX refractive index detectors; BSA as standard

CMP-Pse5Ac7Ac synthetase PseF from Aeromonas caviae (enzyme)
percent present as homodimer: > 99%
stoichiometry N: 2
